This passage reports fold decrease in IL-2 release from CD4+ T cells (72 h) and Log2 FC (log2 fold change) results from patent US20230243836A1.

For assay [1], the target named is VISTA (V-Domain Ig Suppressor of T Cell Activation) expressed on human cells (human) (UniProt Q9H7M9). Kind of assay: cell-based or functional assay.
Assay [2] deals with T1, P-selectin glycoprotein ligand 1 (PSGL-1) expressed on human cells (human) (UniProt Q14242).
T1 sequence: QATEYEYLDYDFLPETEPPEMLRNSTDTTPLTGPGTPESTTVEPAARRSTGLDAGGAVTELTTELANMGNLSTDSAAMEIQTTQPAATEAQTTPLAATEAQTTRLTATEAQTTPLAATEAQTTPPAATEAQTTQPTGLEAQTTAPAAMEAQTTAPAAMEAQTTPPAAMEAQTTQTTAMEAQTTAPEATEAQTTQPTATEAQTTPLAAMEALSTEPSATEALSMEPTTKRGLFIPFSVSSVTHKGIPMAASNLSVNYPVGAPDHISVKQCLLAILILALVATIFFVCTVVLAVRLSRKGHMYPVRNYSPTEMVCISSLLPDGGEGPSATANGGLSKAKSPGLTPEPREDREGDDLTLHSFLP
Kind of assay: CAPTIREC (TRICEPS) ligand-receptor capture on naive human T cells, LC-MS/MS; enrichment against the anti-CD28 antibody control.

Sequence of VISTA-Fc fusion protein (chain): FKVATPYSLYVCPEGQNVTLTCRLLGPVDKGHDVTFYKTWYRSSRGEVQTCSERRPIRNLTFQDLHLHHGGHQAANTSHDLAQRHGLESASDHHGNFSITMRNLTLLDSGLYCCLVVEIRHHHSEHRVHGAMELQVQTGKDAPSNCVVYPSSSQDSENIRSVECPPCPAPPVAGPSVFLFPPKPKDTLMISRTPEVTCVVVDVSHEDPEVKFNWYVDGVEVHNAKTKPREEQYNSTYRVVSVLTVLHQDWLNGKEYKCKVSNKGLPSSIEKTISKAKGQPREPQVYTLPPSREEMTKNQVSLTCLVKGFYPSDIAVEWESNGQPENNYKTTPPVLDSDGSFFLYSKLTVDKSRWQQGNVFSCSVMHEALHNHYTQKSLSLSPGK
Sequence of VISTA (V-Domain Ig Suppressor of T Cell Activation) expressed on human cells (human) (Q9H7M9 33-311): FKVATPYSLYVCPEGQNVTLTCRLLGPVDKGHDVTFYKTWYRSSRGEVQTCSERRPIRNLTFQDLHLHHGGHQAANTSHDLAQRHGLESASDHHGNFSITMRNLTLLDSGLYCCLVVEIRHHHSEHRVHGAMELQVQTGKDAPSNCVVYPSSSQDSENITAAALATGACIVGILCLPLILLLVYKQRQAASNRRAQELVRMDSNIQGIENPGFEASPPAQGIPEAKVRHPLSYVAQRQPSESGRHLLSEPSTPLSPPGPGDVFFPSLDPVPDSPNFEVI

In assay [1], “PSGL-1-Fc fusion protein (Example VIII) (from UniProt Q14242 18-320)” showed a fold decrease in IL-2 release from CD4+ T cells (72 h) of 2 fold.
In assay [2], VISTA-Fc fusion protein gave a Log2 FC (log2 fold change) of 2.33.
